Measured values published in patent publication US20240245751A1.

Target: Tat-PYC-Smad7 (recombinant Tat-tagged protein containing amino acids 203-426 of human Smad7) (human) (UniProt O15105)
Test: sandwich ELISA: rabbit anti-Smad7 (Novus NBP1-87728) as capture, MAB2029 as detection, Tat-PYC-Smad7 spiked into dog serum, OD 450

UniProt O15105, sequence (O15105 other isoform, or with tags, fused parts or gaps limits assumed): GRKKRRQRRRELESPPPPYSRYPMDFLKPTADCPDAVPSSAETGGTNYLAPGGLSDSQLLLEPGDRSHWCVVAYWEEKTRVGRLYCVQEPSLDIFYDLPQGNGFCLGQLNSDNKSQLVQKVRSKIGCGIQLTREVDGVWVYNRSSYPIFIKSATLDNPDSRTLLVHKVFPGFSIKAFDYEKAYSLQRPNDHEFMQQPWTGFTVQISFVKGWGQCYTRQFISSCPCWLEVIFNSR

Mouse monoclonal antibody (R&D #MAB2029) that recognized the c-terminus of human SMAD7
lowest concentration detected: 0.16 ng/mL
